Laboratory results as given in patent US5726018.

Experiments:
[1] = molecular target: pp32, dephosphorylated (murine) (UniProt O35381)
[2] = molecular target: pp32 (32 kDa murine nuclear phosphoprotein from A20 cells) (murine) (UniProt O35381)
[3] = molecular target: pp35 (35 kDa murine nuclear phosphoprotein purified from A20 cells) (murine)
[4] = molecular target: pp35, dephosphorylated (murine)

Row | Substance | 32P incorporation (stoichiometry of phosphorylation) [1] | 32P incorporation (stoichiometry of phosphorylation) [2] | 32P incorporation (stoichiometry of phosphorylation) [3] | 32P incorporation (stoichiometry of phosphorylation) [4]
1 | A 431 cell epidermal growth factor receptor kinase (from UniProt P00533) (enzyme) | < 0.01 mol/mol |  |  | 
2 | casein kinase II from bovine thymus (enzyme) | 0.08 mol/mol | < 0.01 mol/mol | 0.05 mol/mol | 0.76 mol/mol
3 | protein kinase C from rat brain (80 kDa isoenzyme) | < 0.01 mol/mol | < 0.01 mol/mol | < 0.01 mol/mol | < 0.01 mol/mol
